Laboratory results as given in the supplement of paper PMC9876800.

Tested on: peptide library, one residue held at a place counted from the S/T acceptor
Assay: relative phosphorylation of the sub-library (ratio to the mean residue at this position); higher = residue favoured
In short: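 Relative sub-library phosphorylation is the ratio of each sub-library's signal to the mean residue at that position. The signal came from phosphorimaging of spots on streptavidin membranes, quantified by densitometry, after purified recombinant kinases reacted with biotinylated degenerate peptide sub-libraries in 384-well plates. Reactions held 50 μM peptide and 50 μM ATP spiked with γ-32P-ATP for 90 min under kinase-specific conditions.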

CILK1, construct: Full length, human, sequence (Q9UPZ9 whole entry, looked up): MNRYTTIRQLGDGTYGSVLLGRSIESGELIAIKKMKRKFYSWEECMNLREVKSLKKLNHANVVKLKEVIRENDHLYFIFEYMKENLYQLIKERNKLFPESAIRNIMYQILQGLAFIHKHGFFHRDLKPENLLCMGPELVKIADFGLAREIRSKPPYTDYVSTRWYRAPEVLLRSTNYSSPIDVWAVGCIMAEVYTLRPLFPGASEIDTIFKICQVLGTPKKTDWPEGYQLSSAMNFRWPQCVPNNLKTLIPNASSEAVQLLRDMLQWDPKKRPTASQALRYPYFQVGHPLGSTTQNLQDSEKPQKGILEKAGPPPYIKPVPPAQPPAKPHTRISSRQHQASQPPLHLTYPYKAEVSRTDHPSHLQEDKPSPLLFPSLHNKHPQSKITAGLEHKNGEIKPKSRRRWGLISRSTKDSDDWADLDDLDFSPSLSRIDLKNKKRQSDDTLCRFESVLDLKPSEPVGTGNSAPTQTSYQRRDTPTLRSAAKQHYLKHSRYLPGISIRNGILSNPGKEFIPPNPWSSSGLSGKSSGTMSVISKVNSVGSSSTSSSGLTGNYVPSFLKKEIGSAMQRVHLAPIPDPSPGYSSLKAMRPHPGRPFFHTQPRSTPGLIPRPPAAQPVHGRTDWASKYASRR
CAMK2B, construct: Full length, human, sequence (Q13554 whole entry, looked up): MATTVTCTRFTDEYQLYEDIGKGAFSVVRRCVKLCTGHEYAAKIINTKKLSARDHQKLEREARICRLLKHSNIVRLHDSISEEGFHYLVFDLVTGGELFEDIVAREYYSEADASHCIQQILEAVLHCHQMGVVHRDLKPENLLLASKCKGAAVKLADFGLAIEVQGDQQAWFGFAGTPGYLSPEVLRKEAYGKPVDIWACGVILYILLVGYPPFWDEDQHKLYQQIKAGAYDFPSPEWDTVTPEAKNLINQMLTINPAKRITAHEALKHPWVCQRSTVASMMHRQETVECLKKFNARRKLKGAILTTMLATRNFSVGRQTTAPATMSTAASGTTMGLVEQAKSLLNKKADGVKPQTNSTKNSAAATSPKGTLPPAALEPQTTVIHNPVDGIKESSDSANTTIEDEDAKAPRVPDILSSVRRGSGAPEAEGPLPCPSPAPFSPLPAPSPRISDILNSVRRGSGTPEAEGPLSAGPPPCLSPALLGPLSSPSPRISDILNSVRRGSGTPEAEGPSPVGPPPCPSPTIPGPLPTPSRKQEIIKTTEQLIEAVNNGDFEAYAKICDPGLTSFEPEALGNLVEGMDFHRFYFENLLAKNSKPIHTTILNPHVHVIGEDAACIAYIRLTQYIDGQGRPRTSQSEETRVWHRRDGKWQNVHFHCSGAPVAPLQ

CAMK2B, construct: Full length, human (from UniProt Q13554)
relative phosphorylation
Conditions	at +1	at +2	at +3	at +4	at -1	at -2	at -3	at -4	at -5
A fixed	0.454	0.673	1.07	0.895	0.744	1.02	0.589	0.903	0.883
D fixed	0.842	4.46	2.37	2.5	1.57	0.86	0.527	0.849	0.702
E fixed	1.45	3.53	2.59	2.45	1.32	1.05	0.627	1.21	0.659
F fixed	2.27	0.366	0.6	0.619	0.736	0.523	0.58	0.852	1.19
G fixed	0.573	0.828	1.26	1.09	1.06	1.46	0.774	1.04	0.836
H fixed	0.758	0.895	0.881	0.893	1.15	1.1	1.03	1.04	0.803
I fixed	1.52	0.405	0.575	0.529	0.482	0.336	0.325	0.729	1.08
K fixed	0.457	0.32	0.489	0.459	1.01	0.848	2.02	1.29	0.791
L fixed	1.1	0.332	0.729	0.506	0.738	0.367	0.382	0.707	1.71
M fixed	1.52	0.426	0.648	0.612	0.948	1.01	0.652	1.07	1.12
N fixed	0.837	1.3	1.13	1.05	1.48	1.38	0.929	0.983	0.749
P fixed	0.295	0.525	0.932	1.43	1.45	0.471	1.11	1.03	1.05
Q fixed	1.43	1.1	1.14	1.02	1.41	3.49	1.22	1.14	0.893
R fixed	0.566	0.381	0.438	0.458	0.795	1.06	4.44	1.3	1.16
V fixed	1.42	0.467	0.62	0.638	0.592	0.388	0.365	0.815	1.2
W fixed	0.534	0.397	0.701	0.983	0.486	0.992	0.758	0.958	1.16
Y fixed	0.988	0.593	0.827	0.882	1.03	0.651	0.679	1.09	1.03
pThr fixed	1.72	1.39	1.97	3.94	0.586	0.581	0.708	0.806	0.783
pTyr fixed	1.76	4.63	1.88	2.72	1.75	0.651	0.664	0.835	0.902

CDC42BPA, construct: aa1-473, human (from UniProt Q5VT25)
relative phosphorylation
Conditions	at +1	at +2	at +3	at +4	at -1	at -2	at -3	at -4	at -5
A fixed	0.571	0.98	0.605	0.722	0.552	0.403	0.476	0.689	0.776
D fixed	0.475	0.764	0.723	0.799	0.668	0.306	0.342	0.53	0.483
E fixed	0.435	0.379	0.701	0.719	0.436	0.226	0.23	0.498	0.321
F fixed	0.802	1.2	1.15	1.1	0.645	0.519	0.424	0.758	0.814
G fixed	0.849	1.06	1.32	0.933	0.984	0.431	0.442	0.765	0.629
H fixed	0.961	1.06	1.27	1.17	1.27	1.25	1.3	1.22	1.04
I fixed	1.61	1.56	0.911	0.783	0.453	0.267	0.295	0.651	0.688
K fixed	0.961	1.01	1.56	1.21	2.71	2.5	2.6	2.28	3.39
L fixed	1.79	1.52	0.789	0.94	1.33	0.416	0.329	0.709	0.771
M fixed	1.45	0.918	0.745	0.872	1.01	0.507	0.354	0.803	0.632
N fixed	1.84	0.88	0.914	1.15	1.15	0.855	0.534	0.893	0.688
P fixed	0.35	1.1	0.983	1.2	1.28	0.482	0.496	0.995	0.666
Q fixed	1.18	0.681	1.3	1.06	1.13	0.973	0.75	0.847	0.911
R fixed	1.17	0.868	1.01	1.04	1.45	5.97	7.05	3.1	2.99
V fixed	0.898	1.08	0.702	0.777	0.529	0.292	0.282	0.641	0.586
W fixed	0.867	0.952	1.12	1.53	0.605	0.852	0.622	0.902	0.809
Y fixed	0.786	1.01	1.18	0.99	0.798	0.744	0.469	0.718	0.814
pThr fixed	0.636	0.97	0.873	1.38	0.283	0.304	0.369	0.547	0.552
pTyr fixed	1.24	0.795	0.785	1.13	0.396	0.353	0.378	0.441	0.391

CDK5, construct: Full length, human (from UniProt Q00535)
relative phosphorylation
Conditions	at +1	at +2	at +3	at +4	at -1	at -2	at -3	at -4	at -5
A fixed	0.423	1.13	0.791	1.07	1.16	1.08	1.05	1.15	1.22
D fixed	0.262	0.357	0.165	0.478	0.753	0.717	0.92	1.1	1.24
E fixed	0.305	0.516	0.12	0.512	0.747	0.842	1.02	0.993	1.03
F fixed	0.227	0.765	0.485	0.679	0.557	0.765	0.65	0.801	0.925
G fixed	1.25	1.06	0.809	1.56	1.86	1.21	1.47	1.47	1.35
H fixed	0.344	1.19	3.07	1.27	0.925	1.03	1.12	1.05	1.03
I fixed	0.261	0.87	0.444	0.828	0.346	0.646	0.742	0.642	0.63
K fixed	0.374	2.44	3.21	1.92	1.49	0.85	1.05	1.07	1.26
L fixed	0.278	0.831	0.536	0.754	0.697	0.958	0.673	0.689	0.625
M fixed	0.382	0.869	0.542	0.967	0.995	1.01	0.894	0.86	0.725
N fixed	0.569	0.828	1.08	0.81	1.17	1.01	1.17	1	0.916
P fixed	10.5	0.464	0.63	0.829	1.49	2.71	1.8	1.61	1.45
Q fixed	0.492	0.971	0.636	1.05	1.24	0.998	1.06	0.952	0.979
R fixed	0.373	2	3.14	1.57	1.48	0.788	1.06	0.988	1.07
V fixed	0.377	0.926	0.397	0.904	0.568	0.788	0.75	0.695	0.757
W fixed	0.285	0.763	0.463	0.957	0.722	0.786	0.811	1.1	0.766
Y fixed	0.258	1.01	0.49	0.836	0.805	0.817	0.763	0.825	1.01
pThr fixed	0.518	0.434	0.412	0.38	0.408	0.721	0.956	0.995	0.939
pTyr fixed	0.513	0.44	0.344	0.453	0.548	0.748	0.822	0.835	1.01

CILK1, construct: Full length, human (from UniProt Q9UPZ9)
relative phosphorylation
Conditions	at +1	at +2	at +3	at +4	at -1	at -2	at -3	at -4	at -5
A fixed	1.36	0.902	0.838	1.02	0.938	0.718	0.93	1.04	0.881
D fixed	0.474	1.08	0.774	0.815	0.661	0.491	0.557	0.803	1.07
E fixed	0.464	0.744	0.722	0.771	0.577	0.498	0.498	0.825	0.875
F fixed	0.972	0.992	0.98	0.809	0.675	0.559	0.567	0.922	0.991
G fixed	1.22	1.08	1.23	1.29	1.22	0.82	0.734	1.08	1.03
H fixed	0.668	1.27	1.22	1.25	1.04	0.615	0.662	0.982	1.1
I fixed	0.907	0.936	0.834	0.819	0.497	0.55	0.556	0.768	0.802
K fixed	0.752	0.968	1.33	1.09	1.63	1.09	1.07	1.21	1.1
L fixed	0.818	0.859	0.957	0.933	0.755	0.616	0.556	0.835	0.953
M fixed	0.929	0.967	0.877	0.926	1.13	0.652	0.709	1.03	0.929
N fixed	0.601	1.13	0.883	1.09	1.15	0.619	0.651	0.92	0.917
P fixed	3.85	0.907	1.15	1.22	1.36	4.79	1.09	1.19	1.04
Q fixed	0.751	1.07	1.07	1.11	1.46	0.938	0.794	1.03	1
R fixed	0.79	1.02	1.25	1.04	1.53	2.19	5.98	1.55	1.32
V fixed	0.877	0.781	0.799	0.739	0.694	0.555	0.515	0.791	0.776
W fixed	0.87	1.12	1.02	1.03	0.835	0.69	0.609	1.14	1.15
Y fixed	0.702	1.17	1.08	1.05	0.845	0.604	0.522	0.89	1.06
pThr fixed	0.722	0.66	0.828	1.06	0.459	0.561	0.625	0.828	0.807
pTyr fixed	0.711	0.992	0.796	0.93	0.513	0.514	0.564	0.68	0.841
